Experimental data reported in US20250388666A1 (BRIGHAM AND WOMEN S HOSPITAL, published 2025).
Changes are numbered by the printed parent chain. Names and notes keep the numbering of the source.

B1: VH1/Vκ0 (antibody, IgG4, V domains shown)
VH: EVQLLESGGGLVQPGGSLRLSCAASGFSFSDYYLYWVRQAPGKGLEWVATISVGGGNTSYPDSVKGRFTISRDNSKNTLYLQMNSLRAEDTAMYYCTRGLYYGPAWFAYWGQGTLVTVSS
VL: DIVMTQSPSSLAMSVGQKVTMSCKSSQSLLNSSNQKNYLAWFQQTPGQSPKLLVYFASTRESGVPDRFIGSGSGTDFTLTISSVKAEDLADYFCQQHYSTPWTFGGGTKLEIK
notes: IgG4 (S241P), kappa
B2: VH2/Vκ4 (antibody, IgG4, V domains shown)
VH: B1 VH with P61A
VL: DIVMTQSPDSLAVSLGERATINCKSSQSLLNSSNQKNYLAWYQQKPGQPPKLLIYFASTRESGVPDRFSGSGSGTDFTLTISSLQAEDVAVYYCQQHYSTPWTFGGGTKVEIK
notes: IgG4 (S241P), kappa
B3: VH0/Vκ1 (antibody, V domains shown)
VH: EVQLVESGGDLVKPGGSLKLACAASGFIFSSHGMSWVRQTPDKRLEWVATISSGGTYTYYPDSVKGRFTISRDNDKNTLYLQMNSLKSEDTAMYYCARHDFDYDAAWFAYWGQGTLVTVSS
VL: QIVLTQSPALLSLSPGERATMSCSANSSVSYMYWYRQKPGQAPKPWIYLTSNLASGVPARFSGSGSGTDYTLTISSLEAEDFATYYCQQWSSNPPTFGQGTKLEIK
B4: VH4/Vκ2 (antibody, V domains shown)
VH: EVQLLESGGGLVQPGGSLRLSCAASGFIFSSHGMSWVRQAPGKGLEWVSTISSGGTYTYYADSVKGRFTISRDNSKNTLYLQMNSLRAEDTAVYYCARHDFDYDAAWFAYWGQGTLVTVSS
VL: B3 VL with Q1E, L10T, M21L, S24R, R36Q, K44R, L53R, S55T, A79P
B5: VH3/Vκ1 (antibody, V domains shown)
VH: B4 VH with S49A, V93M
VL: B3 VL
B6: VH4/Vκ1 (antibody, V domains shown)
VH: B4 VH
VL: B3 VL
B7: VH3/Vκ2 (antibody, V domains shown)
VH: B4 VH with S49A, V93M
VL: B3 VL with Q1E, L10T, M21L, S24R, R36Q, K44R, L53R, S55T, A79P
B8: Parent VH/L2 (antibody, IgG4, V domains shown)
VH: B1 VH with N57Q, P61A
VL: DIVMTQSPDSLAVSLGERATINCKSSQSLLNSANQKNYLAWYQQKPGQPPKLLIYFASTRESGVPDRFSGSGSGTDFTLTISSLQAEDVAVYYCQSHYPFPYTFGGGTKVEIK
notes: IgG4 S241P, kappa
B9: Parent VH/L20 (antibody, IgG4, V domains shown)
VH: B1 VH with N57Q, P61A
VL: B8 VL with Y98F, F100Y, Y102L
notes: IgG4 S241P, kappa
B10: Parent VH/L19 (antibody, IgG4, V domains shown)
VH: B1 VH with N57Q, P61A
VL: B8 VL with Y98I, P99Y, F100P, P101N, Y102F
notes: IgG4 S241P, kappa
B11: Parent VH/L6 (antibody, IgG4, V domains shown)
VH: B1 VH with N57Q, P61A
VL: B8 VL with P101S, Y102F
notes: IgG4 S241P, kappa
B12: Parent VH/L3 (antibody, IgG4, V domains shown)
VH: B1 VH with N57Q, P61A
VL: B8 VL with Y98F, Y102F
notes: IgG4 S241P, kappa
B13: Parent VH/L17 (antibody, IgG4, V domains shown)
VH: B1 VH with N57Q, P61A
VL: B8 VL with F100Y
notes: IgG4 S241P, kappa
B14: Parent VH/L4 #1 (antibody, IgG4, V domains shown)
VH: B1 VH with N57Q, P61A
VL: B8 VL with Y98F, F100Y, P101Y
notes: IgG4 S241P, kappa
B15: Parent VH/L5 (antibody, IgG4, V domains shown)
VH: B1 VH with N57Q, P61A
VL: B8 VL with P101A, Y102F
notes: IgG4 S241P, kappa

The binders below were run against T1, CEACAM1-HIS (Sino Biologics Inc.) (Homo sapiens (Human), UniProt P13688 35-428) (assay: SPR single-cycle, IgG on Protein A).
T1 construct: bought; not shown: His tag
T1 sequence: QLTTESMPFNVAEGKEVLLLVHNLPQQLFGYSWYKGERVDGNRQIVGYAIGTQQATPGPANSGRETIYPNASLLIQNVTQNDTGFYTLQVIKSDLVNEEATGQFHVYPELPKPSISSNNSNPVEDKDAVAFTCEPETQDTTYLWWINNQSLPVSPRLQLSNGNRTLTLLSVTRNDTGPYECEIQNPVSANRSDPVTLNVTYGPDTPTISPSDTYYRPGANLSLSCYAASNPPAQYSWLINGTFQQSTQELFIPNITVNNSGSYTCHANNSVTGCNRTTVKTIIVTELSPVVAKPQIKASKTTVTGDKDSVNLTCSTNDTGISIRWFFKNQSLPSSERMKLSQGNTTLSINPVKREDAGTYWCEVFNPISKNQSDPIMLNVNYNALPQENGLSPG
Protocol: As an alternative approach to assess the binding of the antibody combinations and the control antibodies to CEACAM1, a kinetic analysis was performed on a Biacore T200 running Biacore T200 Evaluation Software V2.0.1. All experiments were run at 25° C. with HBS-P+ running buffer (pH 7.4).
In order to assess the binding of all Composite Human Antibody™ variants, single cycle kinetic analysis was performed on the supernatants of all the transiently transfected HEK EBNA cells. Purified chimeric antibody and purified chimeric antibody spiked into HEK EBNA media were used as positive controls. Supernatants were diluted in HBS-P+ to a concentration of 1 μg/mL (as determined by an IgG quantitation ELISA). At the start of each cycle, antibodies were loaded onto Fc2, Fc3 and Fc4 of a Protein A chip and captured at a flow rate of 8 μL/min to give an RU of ˜100. The surface was then allowed to stabilize. Single cycle kinetic data was obtained at a flow rate of […] to minimize any potential mass transfer effects. Multiple repeats of the chimeric antibody were performed to check the stability of the surface and analyte over the kinetic cycles. The signal from the reference channel Fc1 (no antibody) was subtracted from that of Fc2, Fc3 and Fc4 to correct for differences in non-specific binding to a reference surface. A 5 point 2-fold dilution range from 3.125 to 50 nM CEACAM1 without regeneration between each concentration was used. The association phase for the 5 injections of increasing concentrations of CEACAM1 was monitored for 150 seconds and a single dissociation phase was measured for 150 seconds following the last injection of CEACAM1. Regeneration of the Protein A was conducted using 2 injections of 10 mM glycine-HCL pH 1.5 followed by a stabilization period of 500 seconds.
In the raw sensorgrams for the single cycle kinetics, the signal from each antibody blank run (no CEACAM1) was subtracted to correct for differences in surface stability.
In the case of B1, the Kd is reported as 76.6 nM and the “relative KD to chimeric parental antibody” value (from here on “relative KD”) is reported as 1.8 ratio.
B2 was tested, and the Kd was 77.8 nM and the “relative KD” value was 1.8 ratio.
In the case of B3, the Kd is reported as 56.1 nM and the “relative KD” value is reported as 1.3 ratio.
In the case of B4, the Kd is reported as 3950 nM and the “relative KD” value is reported as 91.4 ratio.
For B5, the Kd was 1500 nM and the “relative KD” value was 34.7 ratio.
For B6, the Kd was 243 nM and the “relative KD” value was 5.6 ratio.
With B7 the Kd was 265 nM and the “relative KD” value was 6.1 ratio.

What follows are binders tested against T2, CEACAM1 (Sino Biological) (human, UniProt P13688 35-428, limits assumed) (assay: SPR single-cycle).
T2 construct: may be the same as CEACAM1-HIS; also called hCEACAM1; biotinylated soluble CEACAM1
T2 sequence: T1 sequence
Procedure, shortened: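 Humanized affinity-matured IgGs from crude supernatants captured on Protein A to ~100 RU, with CEACAM1 analyte injected at 25–100 nM (three-point, two-fold) in HBS-P+ without regeneration. 200 s association per injection, 300 s single dissociation; reference-channel and blank subtracted.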
In the case of B8, the Kd is reported as 70 nM and the “fold better than Parent (KD)” value is reported as 2.26 fold.
In the case of B9, the Kd is reported as 87 nM and the “fold better than Parent (KD)” value is reported as 1.83 fold.
In the case of B10, the Kd is reported as 77 nM and the “fold better than Parent (KD)” value is reported as 2.08 fold.
With B11 the Kd was 57 nM and the “fold better than Parent (KD)” value was 2.81 fold.
B12 was tested, and the Kd was 63 nM and the “fold better than Parent (KD)” value was 2.53 fold.
B13 was tested, and the Kd was 76 nM and the “fold better than Parent (KD)” value was 2.08 fold.
In the case of B14, the Kd is reported as 103 nM and the “fold better than Parent (KD)” value is reported as 1.54 fold.
With B15 the Kd was 66 nM and the “fold better than Parent (KD)” value was 2.42 fold.

Each binder was assayed against T3, human GST-CEACAM1 (human, UniProt P13688 35-141, limits assumed) (assay: competition ELISA vs murine parent antibody).
T3 construct: printed both as GST-CEACAM1 and CEACAM1-GST; also called human CEACAM1-GST protein; hCEACAM1-GST; not shown: GST tag
T3 sequence: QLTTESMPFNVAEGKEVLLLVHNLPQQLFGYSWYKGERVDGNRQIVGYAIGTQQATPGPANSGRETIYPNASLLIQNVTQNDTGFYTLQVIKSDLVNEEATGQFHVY
Protocol: The binding of the purified chimeric antibody to human CEACAM1 was assessed in a competition ELISA assay. Nunc Immuno MaxiSorp 96 well flat bottom microtitre plates were pre-coated with 1 μg/ml human GST-CEACAM1 in 1×PBS, overnight at 4° C. The following day the plates were blocked for 1 hour at room temperature with 2% BSA/PBS before washing 2× with PBS/0.05% Tween 20 pH 7.4.
The binding of the purified antibodies to human CEACAM1 were assessed in a competition ELISA assay as described above. The ability of each variant to compete against the murine parental antibody for binding to the GST-CEACAM1 was compared to that of the chimeric antibody (VH0/Vκ0), which was included on each plate.
For B1, the “average relative IC50 (normalized to chimeric antibody)” value was 1 ratio.
In the case of B2, the “average relative IC50 (normalized to chimeric antibody)” value is reported as 7.2 ratio.
B3 was tested, and the “average relative IC50 (normalized to chimeric antibody)” value was 2.5 ratio.
